We go through 20 sequences from the DeepSol protein solubility set.

The nature of this data set: soluble on expression in E. coli; label from the status in PepcDB or PDB records.
As to “MNPLLFNDRTLKGSGVLARVTPTGTQYVASVVAAAFSSHFADIKPPKERKDHQLTTISTVTLRRLMLETLQLDKQLVTTTTSDGLLRITVQNISVSSSAVLSGELREIKLQDNVTFRTANLRIDTAIRIMKNAGGNPALKMESCKIVTQGIKLVTKPMDPRNGKSLADAIANDANTMFSDLICSKIDHIVSNRVNQRFALLSSRISLEDSKNFDIVKIIMQAEERLKRLVRQNMLRSNKTIRRNVHAHNARRVSRDPVRGKRQADEDKFHLILNSFNFSRADSLMLDYSMLSPPSLTSRGIELQTSGEVFQKGHVTPFGAGPIFLPRIPNPSQMLQIVVSDFVPNSLMFHGHRIKLFDTRIDWMTPQFGPVMRTTCDLSTGSLFCIGDLFPALREMLPDRNVAFLFTTLRAPAVIMQPEEKGGIHFSLRGLIRLVSDRNEPIGEMEIRIEALMKMKLTSKSVKGKVTIEEIQFTSRSPRILLQEELDDAGFLSREILQRMVNDILRQGIPIPIHPLFKLVKPKLTLLSRSMLLETNFLLNEHIIAQLTAEALVA”, the “soluble on expression in E. coli” value was “not soluble”. To “MNPSMKQKQEEIKENIKNSSVPRRTLKMIQPSASGSLVGRENELSAGLSKRKHRNDHLTSTTSSPGVIVPESSENKNLGGVTQESFDLMIKENPSSQYWKEVAEKRRKALYEALKENEKLHKEIEQKDNEIARLKKENKELAEVAEHVQYMAELIERLNGEPLDNFESLDNQEFDSEEETVEDSLVEDSEIGTCAEGTVSSSTDAKPCI” belongs “soluble”; to “MNPVKNRSEVLFIYDVKWANPNGDPLDENRPRFDEETSRLFVTDVRLKRTVRDYLAECYDETLWVTGEAVVPEDRVKELGIKDVNDACQKCIDIRLFGAVIPQSKKGAMESSITGPVQFRYGTSLHRVKLMTIQGTAAFATENSKQRSFREDQVVPYALIAFYGVINQNSAKFTGLTEEDVSKLLEGIWMGTKNLITRSKMEHNPRLLMRVVYKEGVNYHSGELDYLVKVVSEKEDEEIRDISELKLDVTELKQVLESLKDKIERIEYSVDNRLKLAENGEEKPFEEIFGGFQLVKLEW”, “not soluble”. For “MNQIAIQETIQRLINQQVVPGVAWGTITEDSLSEQYTGFLGNTGPFARQKISSASLYDLASLTKVIGTTNRMLQLIDTNQLTFSTTVGEILPDYQGLSCSIGELLLHQSGLPADVVDKKNVTKKSLQEIILTHSLSERGKTTYSDLGYYLLGEIIQVLDRCSLEESFQTYVFQPMNLQHTSFTVSDFAQAVPTEITKQRGVIQGVVHDSKAYQLKAPIGSAGLFATLPDLLTFVQCFMNNRYPSGKPLFSEKMFTALWSMNQGGRTFGWEVKKTQAGADYLYHTGFTGTAIGMKKETKEALILLTNRIHPTREERGFLKARTKIYQQYF”, the “soluble on expression in E. coli” value is “not soluble”. With “MNRGLDPMHVGNARYVKNDDLPKTVPVFPLPGALLLPEGHLPLNIFEPRYLAMIDTALASHRLIGMVQPALHVIEAGIEGGPLSAVGCLGRITSFSETGDGRYVISLTGVCRFRLLEEVAGSEPYRSFRHAPFGADLSGEYDEEAVDRENLLRVFRAFLDANQLEADWESVERAGNRVLVNSLSMMSPFGPAEKQALLEAPDLKTRAETLIAITEIVLAQGSGEGGTVLQLEHHHHHH”, the “soluble on expression in E. coli” value was “not soluble”. As for “MNRILSMIEQMEPGVVIFNDDLTISSVSSMVFMIFGHIPRERIFAGDLLDIHDEAAREKVKETLRLARQAQRHIPLSLKFITSEGHDRYLLVKLITVAERDPASEKICALFYDITPFIVAERKLTRVPVTSRGDIHLLRPEEIVYLKADNIYSLIYTEAGEFHSDLSLGAMEKRLSEDIFYRIHRSYLVNLAKVRKVHRESSECTVAAGGGEVRLPVSRDKMQRFLTDLGLK”, the “soluble on expression in E. coli” value was “not soluble”.

On to “MNSAWALLRLASPQLPIGGYSYSQGLEMAVEQSIVIDPQTAGRWIGDQLLLNLARFEAPLLLAHCEAAAVGDWGQLLQVSEQHRASRETRELHQESRQMGYSLQQLLNGLPELDRDARRFLEQTTEPHLALGWALAARTWRISPQDALAAWLWSWLENQLAVLMKTLPLGQQAAQRLTSELLPLLQQAQVNASAQDTHPAGSAAFGLALASMAHERQYSRLFRS”, for which the “soluble on expression in E. coli” value was “soluble”. Consider “MNSEIELPVQKQLEAYNARDIDAFMAWWADDCQYYAFPATLLAGNAAEIRVRHIERFKEPDLYGELLTRVIVGNVVIDHETVTRNFPEGKGEVDVACIYEVENGRIAKAWFKIGEPRIVSQKS”, for which the “soluble on expression in E. coli” value is on record as “soluble”. Consider “MNSLVRRSAQQLSLWRTYCIKHNASEAASPGRNAGRPNYEEFIGRHQRQAQCSIVVQVSSEKSYEELYNYCSSFGSIMGAHHYCVRQDETLHYILLEYATSDEAAAAIGAGVTNGELSGVPVRSPFLWFRAAGGGRRSPKLVANTAPALLSLDGTRQVDQRHLLGLLRGAADIEEQVQQLYEHTRLNELGIRMRFLAALQVQQAIAGMFPAAQAQPFGSSVNGFGRMGCDLDLILRFDSDMGAKIPLEAAVPSRLVYHTKENLSNGRSQTQRHMECFGDMLHLFLPGVCHVRRILQARVPIIKYHHEHLDLEVDLSMSNLTGFYMSELLYMFGEMDPRVRPLTFTIRRWAQTCGLTNPSPGRWISNFSLTCLVMFFLQQLRQPILPTIGALAKAAEPGDSRVTEDGINCTFTRNVDRLGFRSRNQSSLSELLLQFFEFYSQFDFHNRAISLNEGKPLSKPDHSAMYIVNPLEQLLNVSKNVSLEECERLRIEVRNAAWVLESEVENASVPEGDGQELSCGLLNLFKHPEKAVIRPNMFFKPRMVEVSDLFEQKEAGATSSSTPPTPAITYKSASVRQQVQSIKAATRSELKQLRGSGSSVPTSSPNNRRRS”, for which the “soluble on expression in E. coli” value was “not soluble”.

As to “MNSRSTAEITDYLNEKITKKDALELFSLPIHAVGRIADEIRKVKCGDLVTFVNDTNINYTNICLSKCRFCAFYAREKGYVLSHEEILRKVGYAVKMGATQIMLQGGMNPDLGLEWFEELFRKIKARFSSVHIHSLSPPEIVFLAKLERSSIREVLDRLKAAGLDSLPGGGAEILVDSVRRKISPNKCSSDEWLRVMETAHSLNMPTTATMMFGHVESDGDIVEHLIKIRELQEKTGGFTAFIPWTFQPGNTELYAEIKRPVSPLRYLQVLAISRIVLNNFRNIQASWLTQGFEIATLSLFFGANDFGGTMLEENVVRATGKDFRPAKIEEIVKAVKAVGRPVALRDTYYNILEWF”, the “soluble on expression in E. coli” value is “not soluble”. With “MNSTNSGPPDSGSATGVVPTPDEIASLLQVEHLLDQRWPETRIDPSLTRISALMDLLGSPQRSYPSIHIAGTNGKTSVARMVDALVTALHRRTGRTTSPHLQSPVERISIDGKPISPAQYVATYREIEPLVALIDQQSQASAGKGGPAMSKFEVLTAMAFAAFADAPVDVAVVEVGMGGRWDATNVINAPVAVITPISIDHVDYLGADIAGIAGEKAGIITRAPDGSPDTVAVIGRQVPKVMEVLLAESVRADASVAREDSEFAVLRRQIAVGGQVLQLQGLGGVYSDIYLPLHGEHQAHNAVLALASVEAFFGAGAQRQLDGDAVRAGFAAVTSPGRLERMRSAPTVFIDAAHNPAGASALAQTLAHEFDFRFLVGVLSVLGDKDVDGILAALEPVFDSVVVTHNGSPRALDVEALALAAGERFGPDRVRTAENLRDAIDVATSLVDDAAADPDVAGDAFSRTGIVITGSVVTAGAARTLFGRDPQ” the entry was “soluble”; with “MNTAHGSDVTRPLDWLVSNFASDVPGVSHAVLVSADGLLMAASAHLPIDRAEQLAAVTSGLASLSAGVSRLFEGGGVLQSVVEMQHGYLLLMSVGDGSHLATLTDAECDIGQVGYEMAILVDRVGASVQATARTPQGL”, “not soluble”; with “MNTHYVGPVLYTPKENVSEKLLKLFDADQPIIFCYTARFYDNVGESGKAIFDNMIKIADKIDASIIISTGNKKDELLALDIASKELKSGKVSIVDYVPLDMAYEKSDLVIHHGGHGSCLAQFYYGVPSVIIPTHTEREYNARMCEKLHVGKMLPRRELNSANLKNCINDVLNDITYKKSVRDWKEKVSGLEHHHHHH”, “not soluble”. With “MNTISILSTTDLPAAWQIEQRAHAFPWSEKTFFGNQGERYLNLKLTADDRMAAFAITQVVLDEATLFNIAVDPDFQRRGLGRMLLEHLIDELETRGVVTLWLEVRASNAAAIALYESLGFNEATIRRNYYPTAQGHEDAIIMALPISMKLHHHHHHHHHH” the entry was “soluble”; with “MNTKPKTIATSSTLELPKLHFQYDNTTTTFTEEEKLIDLKPTSEANYVKFWYNIVRNTYSQTHTNGSPVKPYLVANIERTIDTRLGEVFLHKKERSEHWASIAWFFNIDVKGKLVEKIIIRMSGIEELILNSGTTQIGENLNLISKSTRIPIEQNLTIDNPQLEVFYIMALWTISLDARAFKADLEDGINSESFSVEVFWKSKQDHNQTTISI”, “not soluble”; with “MNTSLFKQERQKYIPKLPNILKKDFNNISLVYGENTEAIQDRQALKEFFKNTYGLPIISFTEGESSLSFSKALNIGIILSGGPAPGGHNVISGVFDAIKKFNPNSKLFGFKGGPLGLLENDKIELTESLINSYRNTGGFDIVSSGRTKIETEEHYNKALFVAKENNLNAIIIIGGDDSNTNAAILAEYFKKNGENIQVIGVPKTIDADLRNDHIEISFGFDSATKIYSELIGNLCRDAMSTKKYWHFVKLMGRSASHVALECALKTHPNICIVSEEVLAKKKTLSEIIDEMVSVILKRSLNGDNFGVVIVPEGLIEFIPEVKSLMLELCDIFDKNEGEFKGLNIEKMKEIFVAKLSDYMKGVYLSLPLFIQFELIKSILERDPHGNFNVSRVPTEKLFIEMIQSRLNDMKKRGEYKGSFTPVDHFFGYEGRSAFPSNFDSDYCYSLGYNAVVLILNGLTGYMSCIKNLNLKPTDWIAGGVPLTMLMNMEERYGEKKPVIKKALVDLEGRPFKEFVKNRDKWALNNLYLYPGPVQYFGSSEIVDEITETLKLELFK”, “soluble”. To “MNTTPLVIGAYAALPATRADQETFYDRLHADLEATGLELPFRDSIHDDPAWLASQLAGRFTDSIITAIPGTMMRVWDGGTFGLASPDDDGRNAAIAFTRSIIDSARALDDAAGHRVIAGIHIHSAPSVTANRDQFLRSLTELLEGMDNDDPRLIIEHCDRYNEAVTGEKRFLSIEQEIAIAKETGIGITVNWGRSAMEAYDTQLPARHIQALVAEGVFEGVMFSGAGDKENTFGAAWADLHLPHHVDEPASLMDDDRIAECLSAAGGAQKYHGAKIQAPADVDVATRVTMLGHITRHLR” belongs “soluble”; to “MNVFAFSISGGGSERSYKETEKTSAMTTTHSTKLQPSQAILFKMREDAPPLNLTEEMPPPFPTKANYLIHPVRLEHHHHHH”, “not soluble”. Regarding “MNVGIKGFGAYAPEKIIDNAYFEQFLDTSDEWISKMTGIKERHWADDDQDTSDLAYEASVKAIADAGIQPEDIDMIIVATATGDMPFPTVANMLQERLGTGKVASMDQLAACSGFMYSMITAKQYVQSGDYHNILVVGADKLSKITDLTDRSTAVLFGDGAGAVIIGEVSEGRGIISYEMGSDGTGGKHLYLDKDTGKLKMNGREVFKFAVRIMGDASTRVVEKANLTSDDIDLFIPHQANIRIMESARERLGISKDKMSVSVNKYGNTSAASIPLSIDQELKNGKLKDDDTIVLVGFGGGLTWGAMTIKWGK”, the “soluble on expression in E. coli” value is “soluble”.

Consider “MNVRITKKMVRELLEVLDEIVEEIRQEEKEKYPYAEWERKREIVKERLRKLPKYVREAVSAIRIEKRVGRPKKVDLEKRVMLFLFARLINKSNRDVEELLELFEPLFGIRVSYKTIERLYSDEEVRMALHNLFILLLKDEGVSGEFSGDGTGYSLAITKHYRSNPKKKGKDFRYVFRIIDLETGMYVGFGYSAKSEKDAFEKAMKMLKSMGVKVNSISLDKYYSTRKTLRMFDAETSVYVIPKRNLSRIGFDWLRVIERIVEMPYRFLKRYFKRNLSEAGFSADKRRFGWLIRQRREDRREMALFAVGLWHNIFAVRVMR”, for which the “soluble on expression in E. coli” value is reported as “not soluble”.
